Where “and” joins values, the source holds several entries; their conditions need not be identical. Identical values can stand only once.

Holding throughout (test): SEC-MALS
Assay [1] deals with BcMCM C200 truncation (Bacillus cereus).
The target in assay [2] is BcMCM N399 truncation (Bacillus cereus).
In assay [3] the target is full-length Bacillus cereus MCM (BcMCM) (Bacillus cereus).

As for “BcMCM C200 truncation (domain or fragment)”, the stoichiometry N in assay [1] was 2 and 3 and 4. On to “BcMCM N399 truncation (domain or fragment)”, for which the stoichiometry N in assay [2] is 2 and 4. In the case of “full-length Bacillus cereus MCM (BcMCM) (enzyme)”, in assay [3], the stoichiometry N came to 2.

For the origin of these results see article PMC2715239.
